According to US20230322953A1 (HARBOUR BIOMED SHANGHAI, published 2023):

Assays:
[1] = molecular target: T1, human PD-L1 on cells (CHO-K1/hPDL1; MDA-MB-231) (human, UniProt Q9NZQ7 19-290); assay: competition FACS: biotinylated PD-1 to CHO-K1/hPDL1 cells (Experiment 1)
T1 construct: whole, on cells

[2] = molecular target: T2, human CTLA4 on cells (CHO-K1/hCTLA4; HEK293/hCTLA4; 293F-hCTLA4) (human, UniProt P16410 36-223); assay: FACS, CHO-K1/hCTLA4 cells (Test 1)
T2 construct: whole, on cells

[3] = molecular target: T2, human CTLA4 on cells (CHO-K1/hCTLA4; …); assay: competition FACS: biotinylated B7-1-Fc to CHO-K1/hCTLA4 cells (Test 1)
[4] = molecular target: T3, biotinylated human CTLA4-Fc protein (ACRO Biosystems, #CT4-H82F3) (human, UniProt P16410 36-161, biotinylated); assay: competition ELISA: biotinylated hCTLA4-Fc to coated B7-1-Fc
T3 construct: bought; also called human CTLA4 protein

[5] = molecular target: T1, human PD-L1 on cells (CHO-K1/hPDL1; …); assay: FACS, CHO-K1/hPDL1 cells (Experiment 1)
[6] = molecular target: T2, human CTLA4 on cells (CHO-K1/hCTLA4; …); assay: cell-based or functional assay
[7] = molecular target: T4, human CTLA4-His protein (ACRO Biosystems, #CT4-H5229) (human, UniProt P16410 36-161); assay: ELISA, coated hCTLA4-His
T4 construct: extracellular domain; bought; also called hCTLA4-His; human CTLA4 extracellular domain recombinant protein

[8] = molecular target: T5, human PD-L1-His protein (ACRO Biosystems, #PD1-H5229) (human, UniProt Q9NZQ7 19-238); assay: ELISA, coated hPD-L1-His
T5 construct: extracellular domain; bought; also called hPDL1-His; human PD-L1 extracellular domain recombinant protein

[9] = molecular target: T2, human CTLA4 on cells (CHO-K1/hCTLA4; …); assay: FACS, CHO-K1/hCTLA4 cells (Test 2)
[10] = molecular target: T2, human CTLA4 on cells (CHO-K1/hCTLA4; …); assay: competition FACS: biotinylated B7-1-Fc to CHO-K1/hCTLA4 cells (Test 2)
[11] = molecular target: T2, human CTLA4 on cells (CHO-K1/hCTLA4; …); assay: FACS, HEK293/hCTLA4 cells

T1 sequence (Q9NZQ7 19-290): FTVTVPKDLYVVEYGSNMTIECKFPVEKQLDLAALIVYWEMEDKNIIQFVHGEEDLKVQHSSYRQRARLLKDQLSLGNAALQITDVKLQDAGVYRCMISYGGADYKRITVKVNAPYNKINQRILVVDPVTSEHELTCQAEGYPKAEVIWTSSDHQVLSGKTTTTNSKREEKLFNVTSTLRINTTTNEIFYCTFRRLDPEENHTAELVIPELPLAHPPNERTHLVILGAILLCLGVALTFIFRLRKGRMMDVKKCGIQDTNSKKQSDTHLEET
T2 sequence (P16410 36-223): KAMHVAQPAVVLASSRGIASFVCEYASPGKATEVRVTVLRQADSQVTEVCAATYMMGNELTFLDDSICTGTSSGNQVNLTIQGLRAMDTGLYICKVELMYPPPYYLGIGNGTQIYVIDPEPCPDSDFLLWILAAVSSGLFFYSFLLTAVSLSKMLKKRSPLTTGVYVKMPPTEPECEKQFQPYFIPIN
T5 sequence (Q9NZQ7 19-238): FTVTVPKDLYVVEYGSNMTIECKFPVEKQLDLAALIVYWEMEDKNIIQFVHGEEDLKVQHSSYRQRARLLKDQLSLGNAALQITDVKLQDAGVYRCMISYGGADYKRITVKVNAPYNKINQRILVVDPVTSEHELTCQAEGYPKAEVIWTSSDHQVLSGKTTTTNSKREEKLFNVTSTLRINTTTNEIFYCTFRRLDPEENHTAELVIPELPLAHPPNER
T4 sequence (P16410 36-161): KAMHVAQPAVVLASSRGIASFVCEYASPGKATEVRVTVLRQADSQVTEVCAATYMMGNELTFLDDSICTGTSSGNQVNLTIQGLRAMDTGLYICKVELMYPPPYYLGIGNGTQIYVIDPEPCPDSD
T3 sequence (P16410 36-161 limits assumed): as the sequence (P16410 36-161) above

Row | IC50 [1] [nM] | Maximum inhibition rate (%) [1] [%] | EC50 [2] [nM] | Maximum MFI [2] [MFI] | IC50 [3] [nM] | Maximum inhibition rate (%) [3] [%] | IC50 [4] [nM] | Maximum inhibition rate (%) [4] [%] | EC50 [5] [nM] | Maximum MFI [5] [MFI] | EC50 [7] [nM] | Maximum OD450 [7] [OD450] | EC50 [8] [nM] | Maximum OD450 [8] [OD450] | Binder | ADCC killing of 293F-hCTLA4 cells, EC50 [6] [nM] | ADCC killing of 293F-hCTLA4 cells, Maximum killing rate (%) [6] [%] | other results
1 | 0.677 | 96.6 | 2.91 | 2620 | 6.42 | 101 | 2.09 | 98.2 | 0.884 | 21000 | 0.567 | 2.95 | 0.108 | 3.52 | PR000300 (bispecific antibody, human IgG1, kappa, PR000070 + VH of PR000184) light: DIQMTQSPSTLSASVGDRVTVTCRASQSIYIWLAWYQQKPGKAPNLLIYKASSLETGVPSRFSGSGSGTEFTLTISSLQPDDFATYYCQQYYGSSRTFGQGTKVEIKRTVAAPSVFIFPPSDEQLKSGTASVVCLLNNFYPREAKVQWKVDNALQSGNSQESVTEQDSKDSTYSLSSTLTLSKADYEKHKVYACEVTHQGLSSPVTKSFNRGEC not shown | 0.008 | 23.8 | –
2 | 0.882 | 96.2 | 1.94 | 2360 | 3.21 | 99.9 | 2.51 | 98.3 | 0.918 | 16600 | 0.35 | 2.92 | 0.131 | 3.53 | PR000301 (bispecific antibody, human IgG1, kappa) EVQLVESGGGLIQPGGSLRLSCAVSGFTVSKNYMSWVRQAPGKGLEWVSVVYSGGSKTYADSVKGRFTISRDNSKNTLYLQMNSLRAEDTAVYYCARAVPHSPSSFDIWGQGTMVTVSSKLEPKSSDKTHTPPPPPRTDIQMTQSPSTLSASVGDRVTVTCRASQSIYIWLAWYQQKPGKAPNLLIYKASSLETGVPSRFSGSGSGTEFTLTISSLQPDDFATYYCQQYYGSSRTFGQGTKVEIKRTVAAPSVFIFPPSDEQLKSGTASVVCLLNNFYPREAKVQWKVDNALQSGNSQESVTEQDSKDSTYSLSSTLTLSKADYEKHKVYACEVTHQGLSSPVTKSFNRGEC heavy: not shown | 0.031 | 36.6 | –
3 | – | – | 1.69 | 1670 | 4.13 | 99.7 | 2.67 | 97.2 | – | – | 0.599 | 3.01 | – | – | PR000184, anti-CTLA4 heavy-chain antibody CL5v3, hIgG1 (antibody, V domains shown, heavy-chain-only antibody (VH-Fc dimer); also called anti-CTLA4 HCAb monoclonal antibody PR000184) VH: EVQLVESGGGLIQPGGSLRLSCAVSGFTVSKNYMSWVRQAPGKGLEWVSVVYSGGSKTYADSVKGRFTISRDNSKNTLYLQMNSLRAEDTAVYYCARAVPHSPSSFDIWGQGTMVTVSS | 0.015 | 30.2 | EC50 [9]: 4.64 nM; Maximum MFI [9]: 722 MFI; IC50 [10]: 3.01 nM; Maximum inhibition rate (%) [10]: 100%; EC50 [11]: 1.15 nM; Maximum MFI [11]: 2260 MFI
